The target in data set [1] is T1, SaFapR (Staphylococcus aureus RN4220, UniProt Q2FZ56 1-190).
T1 sequence: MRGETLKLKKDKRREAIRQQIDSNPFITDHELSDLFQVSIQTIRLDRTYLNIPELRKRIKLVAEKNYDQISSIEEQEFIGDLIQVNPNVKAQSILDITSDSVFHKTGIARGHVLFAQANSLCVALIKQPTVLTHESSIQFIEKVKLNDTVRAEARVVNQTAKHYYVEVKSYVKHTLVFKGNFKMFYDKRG
Description: ITC; first dimer, sequential binding model, 25 C; ITC: 50 mM Tris-HCl pH 8, 150 mM NaCl, 25 C; EMSA: 20 mM Tris-HCl pH 8, 350 mM NaCl, 10 mM MgCl2, 5 mM DTT, 15 min room temperature, native 5% PAGE in 45 mM Tris-borate pH 8, 1 mM EDTA. The settings on record: protein: recombinant; tags: N-terminal His-tag removed with TEV protease; chain copies: 2.

For data set [2], the target named is T1, SaFapR. Description: ITC; second dimer, sequential binding model, 25 C; ITC: 50 mM Tris-HCl pH 8, 150 mM NaCl, 25 C; EMSA: 20 mM Tris-HCl pH 8, 350 mM NaCl, 10 mM MgCl2, 5 mM DTT, 15 min room temperature, native 5% PAGE in 45 mM Tris-borate pH 8, 1 mM EDTA. To be noted: protein: recombinant; tags: N-terminal His-tag removed with TEV protease; chain copies: 2. (ITC needs no label: the signal is the heat of the interaction.)

What is called Kd is the free concentration of one partner at which half of the binding sites on the other are occupied at equilibrium, for simple one-to-one binding.

B1: PfapR operator 40 bp (dsDNA)
DNA 1: GCCAATTATATACTACTATTAGTACCTAGTCTTAATTCCG
DNA 2: CGGAATTAAGACTAGGTACTAATAGTAGTATATAATTGGC
In the case of B1, the dissociation constant Kd with SaFapR [1] was found to be 0.5 ± 0.1 nM; with SaFapR [2], 51 ± 8 nM.

The values are drawn from paper PMC3536700, “Structural Basis for Feed-Forward Transcriptional Regulation of Membrane Lipid Homeostasis in Staphylococcus aureus”.
